Results reported in patent US8153134 (SCHERING, dated 2012).
Where a chain is given by its changes, count along the chain named.

T1: human MDL-1 (human, UniProt Q9NY25 1-188)
T1 sequence: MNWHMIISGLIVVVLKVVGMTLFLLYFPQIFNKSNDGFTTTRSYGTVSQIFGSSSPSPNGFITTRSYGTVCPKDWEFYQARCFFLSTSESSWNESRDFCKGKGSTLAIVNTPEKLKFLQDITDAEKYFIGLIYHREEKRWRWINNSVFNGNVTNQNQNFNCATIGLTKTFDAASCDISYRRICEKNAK

T2: hMDL-1-hIG (human, UniProt Q9NY25 28-188)
T2 construct: Fusion of human MDL-1 with human Ig used in the BIAcore assay; MDL-1 is a type II membrane protein, so the Ig part may stand N-terminal; also called MDL-1-hIg ligand; not shown: human Ig part (hIG)
T2 sequence: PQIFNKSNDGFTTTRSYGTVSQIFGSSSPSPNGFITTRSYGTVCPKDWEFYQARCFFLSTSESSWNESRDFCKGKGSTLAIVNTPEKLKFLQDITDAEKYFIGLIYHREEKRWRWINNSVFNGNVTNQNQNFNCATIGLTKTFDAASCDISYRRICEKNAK

B1: DX244 (antibody, V domains shown)
VH: QIQLVQSGPELKKPGETVKISCKASGYTFTIYAMNWVKQAPGKGLEWMGWINTDTGEPTYADDFKGRFAFSLETSASTAYLQINNLKNEDMATYFCARSSEVFYDYRFDYWGQGTALTVSS
VL: DIQMTQSPSSLSASLGERVSLTCRASQDIGSSLNWLQQEPDGTIKRLIYATSNLDSGVPKRFSGSRSGSDYSLTISSLESEDFVHYYCLQYASSPFTFGSGTKLEIKR
notes: Parental rodent anti-human MDL-1 monoclonal antibody (not the humanized form); VL of the kappa subclass; also called anti-MDL-1 antibody clone DX244; ATCC PTA-8375
B2: DX246 (antibody, V domains shown)
VH: QVTLKESGPGILKPSQTLSLTCSFSGFSLSTSGMNVGWIRQPSGKGLEWLAHIWWDDDKYYNPSLKSQLTISKDTSRNQVFLKITSVDTADTATYYCARRAFYGSNYDYYAMDYWGQGTSVTVSS
VL: ENVLTQSPAIMSASPGEKVTMTCSVSSSVSYIHWYQQKSSTSPKLWIYDTSKLASGVPGRFSGSGSGNSYSLTISSMEAEDVATYYCFQGSGYPLTFGAGTKLELKR
notes: Rodent anti-human MDL-1 monoclonal antibody from a hybridoma; VL of the kappa subclass; also called anti-MDL-1 antibody clone DX246; ATCC PTA-8376
B3: DX233 (antibody, V domains shown)
VH: EVQMQQSGAELVKPGASVKLSCTASGFNIKDTYMHWVKQRPEQGLEWIGRIDPANGITKSDPKFQGKATITADTSSNTAYLQLNSLTSEDTAVYSCAPYSGNYVWFPYWGQGTLVTVSA
VL: DIVMTQSHKFMSTSVGDRVNITCKASQDVGTAVAWYQRKPGKSPQVLIYWASTRHTGVPDRFTGSGSGTDFTLTISNVQSEDLADYFCQQYRSYPLTFGAGTKLELKR
notes: Rodent anti-human MDL-1 monoclonal antibody from a hybridoma; VL of the kappa subclass; also called anti-MDL-1 antibody clone DX233
B4: DX240 (antibody, V domains shown)
VH: QVQLLQSGAELVKPGASVKISCKASGYTFTDHAIHWVKQKPEQGLEWIGYISPGDGDIKYNEKFKDKATLTADKSSSIAYMQLNSLTSEDSAVYFCKNFDYDFIFDFWGQGTTLTVSS
VL: DIVMSQSPSSLAVSAGETVTMSCKSSQSLLNSRARKNYLAWYQQKPGQSPKLLIYWASTRESGVPDRFTGSGSGTDFTLTISSVRAEDLAVYYCKQSYNLYTFGGGTKLEIKR
notes: Rodent anti-human MDL-1 monoclonal antibody from a hybridoma; VL of the kappa subclass; also called anti-MDL-1 antibody clone DX240; ATCC PTA-9136
B5: DX239 (antibody, V domains shown)
VH: QVQLQQSGAELVRPGTSVKISCKASGYGFNNYWLGWVKQRPGHGLEWIGDIYPGSGNTYYNENFKGRATLTADKSSTTAYMQVSSLTSEDSAVYFCARGKESFAYWGQGTLVTVSA
VL: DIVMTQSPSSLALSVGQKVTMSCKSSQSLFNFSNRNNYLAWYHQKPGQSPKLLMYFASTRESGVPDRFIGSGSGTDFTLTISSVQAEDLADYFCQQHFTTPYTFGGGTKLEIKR
notes: Parental rodent anti-human MDL-1 monoclonal antibody (not the humanized form); VL of the kappa subclass; also called anti-MDL-1 antibody clone DX239; ATCC PTA-9135
B6: DX230 (antibody, V domains shown)
VH: EVQLVESGGDLVKPGGSLKLSCAASGFAFSNYDMSWVRQTPEKRLEWVAYISGGGGTTYYSDTVKGRFTISRDNAKNTLYLQMSSLKSEDTAMYYCVRHAVYYGKPYWGQGTTLTVSS
VL: DIVLTQSPPSLAVSLGQRATVSCRASESVEHYGTGLMQWYQQKPGQPPRLLIYAASNVESGVPARFSGSGSGTDFSLNIHPVEEDDIAMYFCQQSRKVPWTFGGGTKLEIKR
notes: Rodent anti-human MDL-1 monoclonal antibody from a hybridoma; VL of the kappa subclass; also called anti-MDL-1 antibody clone DX230; ATCC PTA-8373
B7: DX241 (antibody, V domains shown)
VH: DVKLVESGGGLVKLGGSLKLSCAASGFTFSSYYMSWVRQTPDKRLELVAAINSNGGTTYYPDTVKGRFTISRDNAKNTLYLQMSSLKPEDTALFYCVRDGEFGHYFDYWGQGTTLTVSS
VL: SIVMTQTPKFLLVSAGDRVTITCKASQSVNNDVAWYQQKPGQSPKLLIYYASNRYTGVPDRFTGSGYGTDFTFTISTVQAEDLAVYFCQQDYNSPLTFGAGTKLELKR
notes: Rodent anti-human MDL-1 monoclonal antibody from a hybridoma; VL of the kappa subclass; also called anti-MDL-1 antibody clone DX241; ATCC PTA-8374
B8: DX297 (antibody, V domains shown)
VH: B6 VH with A23T, K76R, M93I, V97A, A100P, V101I
VL: B6 VL with P9A, V21I, G35S, S69G, S95N

These binders were tested against T1, human MDL-1 (assay: cell-based or functional assay).

increase in CD11b surface expression on human neutrophils, Mean Fluorescent Intensity as compared to isotype control treatment [MFI]	increase in CD66b surface expression on human neutrophils, Mean Fluorescent Intensity as compared to isotype control treatment [MFI]	Binder
349	110	B1
393	109	B2
303	90.5	B3
336	97	B4
377	107	B5

Target: T1, human MDL-1
Experiment: cell-based or functional assay
Remark: another data set of the same source

decrease of CD62L staining (MFI) of human neutrophils, isotype control treatment minus anti-hMDL-1 treatment [MFI]	Binder
140	B1
152	B2
96.9	B3
114	B4
142	B5

Each binder was assayed against T2, hMDL-1-hIG (assay: BIAcore SPR; hMDL-1-hIG as capture antigen on the chip, mAb as analyte).
Description: (§1) Determining the Equilibrium Dissociation Constant (K_d) for Humanized Anti-Human MDL-1 Antibodies Using BIAcore Technology BIAcore determinations are performed essentially as described at Example 4 of co-pending, commonly assigned U.S. patent application Ser. No. 11/511,635 (filed 29 Aug. 2006). Briefly, ligands (anti-MDL-1-hIg) are immobilized on a BIAcore CM5 sensor chip using standard amine-coupling procedure. Kinetic constants for the various interactions are determined using BIAevaluation software 3.1. The K_d is determined using the calculated dissociation and association rate constants.

koff [s⁻¹]	kon [M⁻¹ s⁻¹]	Binder
6.8e-05	277000	B1
0.000817	644000	B2
0.0016	63000	B6
7.3e-05	354000	B7

Each binder was assayed against T2, hMDL-1-hIG (assay: BIAcore SPR; mAb as capture reagent, hMDL-1-hIG as analyte).
Description: as §1
(§2) For antibodies DX233, DX239, and DX240, the antibodies were used as the capture reagent and the MDL-1-hIg ligand was used as the analyte. Affinity measurements for DX233, DX239, and DX240 were as follows.

koff [s⁻¹]	kon [M⁻¹ s⁻¹]	Binder
0.000147	20000	B3
0.000325	8000	B4
0.000336	10000	B5

Target: T1, human MDL-1
Experiment: cell-based or functional assay
Remark: another data set of the same source

secreted beta-hexosaminidase, OD (405-570), DT808 mouse mast cells, cross-link	secreted beta-hexosaminidase, OD (405-570), DT808 mouse mast cells, no cross-link	Binder
3.21 OD (405-570)	1.22 OD (405-570)	B3
3.25 OD (405-570)	1.83 OD (405-570)	B4
3.14 OD (405-570)	1 OD (405-570)	B5

The binders below were run against T2, hMDL-1-hIG (assay: BIAcore SPR; hMDL-1-hIG as capture antigen on the chip, mAb as analyte; apparent Kd).
Description: as §1

Kd [nM]	Binder
0.247	B1
1.27	B2
25.2	B6
0.207	B7

Target: T1, human MDL-1
Experiment: cell-based or functional assay
Remark: another data set of the same source

secreted beta-hexosaminidase, OD (405-570), DT808 mouse mast cells, cross-link	secreted beta-hexosaminidase, OD (405-570), DT808 mouse mast cells, no cross-link	Binder
3.36 OD (405-570)	3.46 OD (405-570)	B1
3.23 OD (405-570)	3.39 OD (405-570)	B2
3.17 OD (405-570)	3.32 OD (405-570)	B6
3.28 OD (405-570)	3.17 OD (405-570)	B8
3.25 OD (405-570)	2.66 OD (405-570)	B7

The binders below were run against T2, hMDL-1-hIG (assay: BIAcore SPR; mAb as capture reagent, hMDL-1-hIG as analyte; apparent Kd).
Description: as §1, §2

Kd [nM]	Binder
8.65	B3
43	B4
37.9	B5
